For the experiment, the target named is Kcnj13 (Kir7.1) from D. rerio fused to mCherry (D. rerio). Kind of experiment: mass photometry; OneMP mass photometer (Refeyn), buffer E, sample diluted 1:10 immediately before analysis, mass calibrated with NativeMark; protein solubilised in DDM with CHS.

Regarding “Kcnj13 (Kir7.1) from D. rerio fused to mCherry (natural protein)”, the stoichiometry N was 4.

Source of the values: article PMC10482006.
